Measured values taken from the DeepSol protein solubility set.

Assay: soluble on expression in E. coli; label from the status in PepcDB or PDB records

| Sequence | soluble on expression in E. coli |
| --- | --- |
| MGHHHHHHSHMEETRAGRYIVRAGSGGQTEDTASGAESVLATLAAVRTRRRSVVCDGPPGSPTDSARHMSDLASLALTAEFGLGCLEAYVRINAGQVLPVVWPPGWNLVLQEIETDEDFKPEDVKAWSHYLCCQTRLAFVGRFVNEGVLSPDQQKKTAVCLISDEGYVFCYVREDTAVYYLARNLMEFARVGLRAVETLHCMRYLTSSLVKRYFRPLLRAWSLGLDTMARFIIRHHGQFMPLTYPPGTELRLCNLRCFENSVEGGHLLRNIKTAFGMRVLGLGTVSLKGENAPFPHLRWPVDLIPIVVAYTGAVYACDVRDDRYIRVGDNLNTFMCLGLNLLFENRRFSGHNGIYDRVPDCPKGRQHR | not soluble |
| GSHMASKPIEDYGKGKGRIEPMYIPDNTFYNADDFLVPPHCKPYIDKILLPGGLVKDRVEKLAYDIHRTYFGEELHIICILKGSRGFFNLLIDYLATIQKYSGRESSVPPFFEHYVRLKSYQNDNSTGQLTVLSDDLSIFRDKHVLIVEDIVDTGFTLTEFGERLKAVGPKSMRIATLVEKRTDRSNSLKGDFVGFSIEDVWIVGCCYDFNEMFRDFDHVAVLSDAARKKFEK | soluble |
| MSLTRCVLEGMKTKHALRHHMKLHKGIKEYECKECHRRFAQKVNMLKHCKRHTGIKDFMCELCGKTFSERNTMETHKLIHTVGKQWTCSVCDKKYVTEYMLQKHVQLTHDKVEAQSCQLCGTKVSTRASMSRHMRRKHPEVLAVRIDEGHHHHHH | not soluble |
| MEISTLPIYHTKTKMFGYYAYKSFSFLPEWKIDVTRDFDVTIGPKFSANLVFGVNNRNRSDYTQFVIDKDEIIVSASVGEEVDFNYRLRDNLKAYIGLEAQVGIGERIYTKSGLYDTGKKIEGSSENAFKPYTPYIIFNNTHIMYSGKVSAGLKIRDKYNIALYGGYGKGYFGIEFGQTF | not soluble |
| MGTRNVRPGDRISAAIVAITDDSVFVATGSKVDGVIDRRELEEADGSLPYAVGDRVDLYVTAVNGQEIRLSKGLSGQGGAAVLEEARDSGVPVEGRVTGTCKGGYNVDVLRKRAFCPGSQIDLHQLEDAESVVGQTFQFLVTRVEQHGRNIVVSRRALLERERDAALATFLEGVKEGDVLEGTVTRLAPFGAFVEIAPGVDGMVLEHHHHHH | soluble |
| MSLTGLCDSHLHTPLCGHATGTPREYAQAALDAGLSGLCFTDHMPMPRWYDAPWRMKLEQLPEYIAEIQAVQQEFAGRLDVRLGLEADFHPGTEKFVEKVLGMFDWDYVIGSVHYLGAWGFDNPEFVAEYEERDLGGLYRDYYALVEGAARSGLFDAIGHLDLPKKFGHLDPDPVYALHALDVVAGQGLALDFNTAGWRKPVAEAYPAPDLVRAAAERGIPFVLGSDAHQPGEVGFRFADAVKEIRDVGGRTVTFRHRKMQEGHHHHHH | soluble |
| MTGEIVTVVKGKVRWVEGEQFIGRIEGDKCSVILGEGGISPMKLLLLSVAGCTSYDVVMILKKMREPIKGLEVEIEGVRREEHPRIYKEVTIHYKIYGNVNEKKARRAIELSQEKYCSASAHLKLSGTDVKYTLEVIRDDEPPSQLNK | soluble |
| MGKFISGSIVAILTDQIEESTACNLKHLLRNDPLFKPLIQTNVHKKRSAYEIIGVHTCEENEPCRIGRTRSCLCQEDFVCDKTPANKNVHLCTKLGYFRLFEANKK | not soluble |
| MSILLVKNAQIVNDDAIFVADILIEDGIIQNVAPNLEAPEGAEVLDAAGKLALPAGIDVYTQVTDSSVDDLSTGCKSAIAGGTGTIVEVVRPRGAESVVSAVKRVKNQLEKSGISCHVALSVAITDFCEQEMSELVKNEGINSFVLDGVSLTDDKLLELFEHVKRLGALIRVVPENKSIVAMLEKKMLKLGVTGPEGFPQSRPESLEADRVSGVCVLGNLASCPISIVQVSSADSLAAIEKARASGALAHAEIASAAVTADGSALFSQDLRFASAHLTDVPLRRGAPDRMIGALSTQPLVVCTSGHRPVNSATRVAAKDFAIAQKGSTGAEERMAVVWERAVRSGRIDAMRFVAVTSTNAAKMFNMYPKKGRIAVGADADLVIWDASGKRVLESSRAQSSQENSMYDGLTVHSVVTATIVGGKIAYQNGEVREAPVAGGFLRLSPNSPYLFSMVGQRDKFANVERVEREASSQQQKPQQNGHHKNSGDFDRNRTKVMESSIDFGGSAANRPRNPPGGRTTGFW | not soluble |
| MGSDKIHHHHHHMRIAQVAPLWERVPPPAYGGIELVVGLLTDELVRRGHEVTLFASGDSISLAKLVSVHPRALRLDRTIKDYSVYETLNLASAYERAEEFDIIHSHIGHGALAYANLVTTPTVHTLHGIFTSDNEKMFSFGKKQPYVSISDAQREPRLGLNCIATVYNGIDVSSYNFHAQPEDPPYLAFLGRMSPEKGAHLAIEIAKQAGWCLKMAGKVDVVDVEYFEKEIKPHIDGEQIQYLGEANHAQKNALMGGAFATLFPITWREPFGLVMVESMASGTPVIAMNLGSTEEVISHGKTGFLCNNLQECISAVDRVIELDRYTCRQYVEDLFSVEQMTDGYEAVYQKIIAERFSRNGHSRNLIALSSDRI | not soluble |
| MAHHHHHHMRCHVMGPSGHKSEYHCATLLGNWQEERRSFGFVDPAREPLSYMTVYKDSFRGTKTDEELANAKPPSCFHENALPELLFYHNEITNPPKNLLTVNELSYTNAKGGEEVNTLHDILHKEGVSKKRDKTIAIRRELGFIGYGAPHEGSLLASKGATATPLDYTMRCGTTTDQNFLESTRGGCYKPPVIPAIGRMQEKQRLLTTKNVTVDATGEYLKDNIDEYPATSSECWGMFMKFTDNMKGKKLRECYED | not soluble |
| MSLKLIVKIGLIVLLLMFNYQGVDADVVSSAIDRYATTTEHQDNMASDHGTLDTMSFTHSLLTGQQQVLAKLMPDDLRIRRAEELQQNFLKILIGRFSLREEILATDRAKIFPSNPIHCVSPACHYFVFTLRRILIEGHHHHHH | not soluble |
| MGSDKIHHHHHHMEHTRLHNKGLTLDKIFLKTLRTTHNGFLTDGKDRIGYGEFYDRVIAIAEELHRDLGENRTVSVMDWNTLNFATLLYAVPLSGNVLHPVDVRQPPEQVMSSMKEAQSSYLLYSADFGRLADAVKTSGIVKEDNIRSTKEVFDESTDHKPGNAGLPELEEDRIASVLFSSGTTGKPKGVRYRHRDIVLTIWAMETNLSAFPGPARLASSDTVFSLIPFFHLWSWGTLYISTLIGASYVVGGRFDPGSTSDLIKRNGVTWMSMVPTMFNALISWDRNSLDGMKILIGGSAIPSGILNFASDHQIELTGIYGFTDGLAAGIGTSNINGSLSERNADAVNAITPLVFTDFEVEGENNEIKFRSPWIPEGYFNVQEERAYRDGWFYPGDSAEFTQDGKIRIRDRIKDLIKSGGEFIPSALLEYYISEIGDIGDVAVIGVHDDKWIERPVAIYRTRSGATVNDEIIRSYLKDLSNKGLIRDWWIPDRFIPVDSMPMTGTGKIDKKTLRAMLEKGDLRTDRK | not soluble |
| GPGSMDGFRLYMEGISLPEGSMRRANAELIGAINSPDPMVQHSGLQMLCDQLTMSSFISPSTMTTIPLVLPSLLRCIASSQVREVFITAARALTYIIDAFPRTFETFPTRDTLIEVLLQHLRSIQDVELSEQCITCLEMITRSQTGSRELLHNNGVEAVLGFADFFTLHKQRQIWTIVQRLVGEVDESSVQHITACLPTLRIGMTNGDSEIRQKAIATLAQAIEGVKTDRAIVETVFGDAADRIAVLLHERDVNDDTLSSALSLLYAGVQWSAGIAASVIQSDLLNTLLSLLQSTPVPAVVAEQHTAPSAGAGRVARRSAAAELVVGRDSTTDSGGGAGTEPAAARTTMLTSHQRTIVCRLLASLLIPCRTGAAEQLERLEMLTQRPLLTGARAHGKPVGHGRRR | not soluble |
| MSRNNEELQGISLLGNQKTQYPTGYAPEILEAFDNKHPDNDYFVKFVCPEFTSLCPMTGQPDFATIYIRYIPHIKMVESKSLKLYLFSFRNHGDFHEDCVNIIMKDLIALMDPKYIEVFGEFTPRGGIAIHPFANYGKAGTEFETLARKRLFEHDAQ | not soluble |
| MIFRSFFTHRIASMETKRLKLIPACLERAEEAHQAVVRSQKTLEVYLPWVPHVLTLEAMIEGTEKAIANFENFEEELRYYIIEK | not soluble |
| MNKVKILAIVGSLRKGSYNRQLALAAKEIVKDTADFTLLDYQDVPLMNEDIEYPAPDAVKRVREEVKAADGIWFFTPEYNHFFPGVLKNLIDWLSRPVSENEPQVLAGKPAAISGISLGMSGTAIAQDHLVTLISFLDMKVMNVPRVTVPNAWQYVDDQGKLIMESIYPHLEKQAKAFVNFIQAKCL | not soluble |
| MANQHFAKEAPETYWKTSTDLPSFPALQEDTECDVTIIGGGITGITTAYELTKRGFRVVLIEANQVLNGTTAHTTAKVTAQHDMIYDEFIRHFGLNHARLYYEANQNAIDYIKGIVDEHQIDCEWIEQDAYLYTANENAVQKIHTEHEAYTKLGIERDLIKDLPIPLGSKLALVMKNQAQFHPLQYLKALLEQIVQKGGRIYEETVALDIKKGERPEVVTKSRHAIKSRFIICCSHFPFYDGGGLYAARMYSDRSYVLAIKPKIEYPEGMYLSIDQPSVALRYTVVNGEKLILFSGVSHKTGQGKAMSTHYETLRQLAESTIGIESIPYYWSTQDLVTIDKIPFIGPMSENEDNILVATGFKKWGMTSSAVAATLLSDLVEKKENPYESIFTPSRFHLNPGLQKVISYNADVAKHLIKGKLEKPDVQFEDISPGEGKAVTINGRRAGAFRDETGCLHLVDTTCTHLGCEVEWNDSEHTWDCPCHGSRFKPSGEVVEGPAIKPLKQIDLDLEHHHHHH | soluble |
| MGSSHHHHHHSSGLVPRGSHQPALAAEPAQLRIGYQKAVSSLVLAKQHRLLEQRFPRTKITWVEFPAGPQLLEALNVGSIDLGGAGDIPPLFAQAAGADLLYVGWVPPTPKAETILVPSKSALRTVADLKGKRIAFQKGSSAHNLLLRVLAKSGLSMRDITPLYLSPANARAAFAAGQVDAWAIWDPWYSALTLDGSARLLANGEGLGLTGGFFLSSRRYATAWGPFVQQVMGTLNQADGLLERDRAGSIKTLAQVSGLPPAVVERTLAHRPPASVQPLSAQVIKAQQATADLFYAQRLLPKRVLVAPAVWRAPDAGTAQAVSK | soluble |
| MGSDKIHHHHHHKTTTAVQLADTFAFMRQKKVLVLDLDPQTNATLALVGEERWEQADERGQTLAHLFLDLLNGTRNFNPERAIVRGASNLNTIPPEVFDQLPESAQYGRVDVLPSSIRLIDVQDRMQDIANRTNYSLSPMAVVQKYIGPLFGRYDYVLIDCPPNLGFITQNGLEVSDHYLIPTIPDRMSTYGIPQIAGKIDELRRDRDLKIRCLGVVVTKFQSNSSQHKQGLEHLPEYLRSAFAYTNEDTPPILNTVMPQTNASAEAMLFERDVRNYPVKYGSGAVAGQAAYKYGLDLAAEVQALLGDEDEA | not soluble |
| MSGSVSGCGSGGCSIVWFRRDLRVEDNPALAAAVRAGPVIALFVWAPEEEGHYHPGRVSRWWLKNSLAQLDSSLRSLGTCLITKRSTDSVASLLDVVKSTGASQIFFNHLYDPLSLVRDHRAKDVLTAQGIAVRSFNADLLYEPWEVTDELGRPFSMFAAFWERCLSMPYDPESPLLPPKKIISGDVSKCVADPLVFEDDSEKGSNALLARAWSPGWSNGDKALTTFINGPLLEYSKNRRKADSATTSFLSPHLHFGEVSVRKVFHLVRIKQVAWANEGNEAGEESVNLFLKSIGLREYSRYISFNHPYSHERPLLGHLKFFPWAVDENYFKAWRQGRTGYPLVDAGMRELWATGWLHDRIRVVVSSFFVKVLQLPWRWGMKYFWDTLLDADLESDALGWQYITGTLPDSREFDRIDNPQFEGYKFDPNGEYVRRWLPELSRLPTDWIHHPWNAPESVLQAAGIELGSNYPLPIVGLDEAKARLHEALSQMWQLEAASRAAIENGSEEG | soluble |
| MGHHHHHHSHMYAAGLGMLEPTKEPLKPLSAAEKIASIGQTATMSPDMNTCTSDQFQESLPPVQFDWSSSGLTNPLDGVDPELYELTTSKLEISTSSLKVTDAFARLMSTVEKTSTSTSRKPKREEHLSEEAIKVIAGLPDLTFMHAKVLMFPATLTPSTSSQEKADG | not soluble |
